Measured values published in paper PMC8643683, “Loss of full-length hnRNP R isoform impairs DNA damage response in motoneurons by inhibiting Yb1 recruitment to chromatin” (Nucleic Acids Research, 2021).

Target: T1, Y-box binding protein 1 (Yb1), endogenous mouse (mouse (endogenous in primary mouse …, UniProt P62960 1-322))
T1 construct: also called Msy1; source: endogenous, primary mouse motoneuron lysate; endogenous, NSC-34 lysate
Experiment: co-IP; Yb1 (sc-101198) or γ-H2AX (clone JBW301) immunoprecipitated on protein A or G Dynabeads from whole lysates of NSC-34 cells, 0 Gy or 9 Gy; IP lysis buffer (50 mM Tris-HCl pH 7.4, 140 mM NaCl, 1% Triton X-100) with 1 U Benzonase, overnight at 4°C; western blot
Settings: partners not purified

T1 sequence (P62960 whole entry): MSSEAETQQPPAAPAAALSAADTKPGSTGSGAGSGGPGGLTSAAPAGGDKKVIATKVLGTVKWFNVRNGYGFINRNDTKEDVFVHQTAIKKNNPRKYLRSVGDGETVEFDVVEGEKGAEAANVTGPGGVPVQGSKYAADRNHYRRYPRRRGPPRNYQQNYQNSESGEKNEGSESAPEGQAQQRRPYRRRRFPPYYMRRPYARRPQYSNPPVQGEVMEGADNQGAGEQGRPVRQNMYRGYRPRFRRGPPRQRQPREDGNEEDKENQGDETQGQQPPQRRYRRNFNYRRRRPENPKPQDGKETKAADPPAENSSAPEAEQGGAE

fold preference of co-precipitation with Yb1 over hnRNP R-ΔN: 1.7 fold
B1: hnRNP R-FL (full-length hnRNP R isoform), endogenous (natural protein, mouse (endogenous in NSC-34), UniProt Q8VHM5 1-632, looked up)
chain: MANQVNGNAVQLKEEEEPMDTSSVTHTEHYKTLIEAGLPQKVAERLDEIFQTGLVAYVDLDERAIDALREFNEEGALSVLQQFKESDLSHVQNKSAFLCGVMKTYRQREKQGSKVQESTKGPDEAKIKALLERTGYTLDVTTGQRKYGGPPPDSVYSGVQPGIGTEVFVGKIPRDLYEDELVPLFEKAGPIWDLRLMMDPLSGQNRGYAFITFCGKEAAQEAVKLCDSYEIRPGKHLGVCISVANNRLFVGSIPKNKTKENILEEFSKVTEGLVDVILYHQPDDKKKNRGFCFLEYEDHKSAAQARRRLMSGKVKVWGNVVTVEWADPVEEPDPEVMAKVKVLFVRNLATTVTEEILEKSFSEFGKLERVKKLKDYAFVHFEDRGAAVKAMDEMNGKEIEGEEIEIVLAKPPDKKRKERQAARQASRSTAYEDYYYHPPPRMPPPMRGRGRGGRGGYGYPPDYYGYEDYYDDYYGYDYHDYRGGYEDPYYGYDDGYAVRGRGGGRGGRGAPPPPRGRGAPPPRGRAGYSQRGAPLGPPRGSRGGRGGPAQQQRGRGSRGARGNRGGNVGGKRKADGYNQPDSKRRQTNNQQNWGSQPIAQQPLQQGGDYSGNYGYNNDNQEFYQDTYGQQWK
notes: hnRNP R, mouse, full-length 632-amino acid protein encoded by transcript variant 1, translated from the AUG in exon 2; source: endogenous, NSC-34 lysate
